Test results published in the supplement of paper PMC12042874.
± gives the uncertainty stated by the source.

Test: amyloid nucleation score (Sup35N fusion, yeast selection) (log enrichment); library NNK1; higher = more nucleation; inactive = no reads after selection
How it was run: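 Three technical output replicates were used for random libraries. Psi-negative yeast expressing peptides of 20 random codons fused to Sup35N were induced with 100 μM copper sulfate for 24 hours and grown 7 days at 30°C on medium lacking adenine and uracil, and input and output plasmid inserts were Illumina-sequenced, excluding sequences with under 100 input reads. The nucleation score is the DiMSum log enrichment of output over input reads, centred on the mode score of non-aggregating sequences.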

| Substance | amyloid nucleation score |
| --- | --- |
| KFFCCN | 7.776 ± 0.076 |
| TEGYVFKCVGKMFLFRFSFA | -0.114 ± 0.36 |
| NSYLSND | inactive |
| CGKESRVRVKYCVFGIKKWQ | -0.518 ± 0.53 |
| MLSVSWFAVAMVYMGMNNTC | 2.04 ± 0.48 |
| SVVCVVSCYKIGAWLRAGG | 0.648 ± 0.52 |
| DVLLPSLTEVAINFSSVTLK | -0.242 ± 0.41 |
| LVLSVFWRNVVWAINLAVVS | -0.521 ± 0.31 |
| SWASKRCSPCCDGSGFPMYL | -1.37 ± 2.7 |
| TTWRMIFVVKRLHWFGLK | -0.445 ± 0.46 |
| TNSFSSSLRMV | 0.076 ± 0.88 |
| MPKAQDALTLKNGELKRLSG | 0.295 ± 0.4 |
| GTLNMIFRFGMHAIVSYFWG | 0.024 ± 0.4 |
| FLRRIGMGYIRLRVLGSIFL | 0.854 ± 0.49 |
| NLVRLILRCSDRAKRFLRAL | -0.218 ± 0.36 |
| YILSISYYFPRGMVDIVMFM | 0.5 ± 0.48 |
| GTLYWLHASV | 0.617 ± 0.47 |
| FFVFSSLGHLV | 0.859 ± 0.26 |
| CMSSAALSRLHM | -0.605 ± 1.1 |
| QFDCPEHKRIHYRGPHPKRK | -0.356 ± 0.33 |
| VNFYDLVL | 0.318 ± 0.46 |
| TRNSDASGNCCVTGRDV | -0.849 ± 0.45 |

| Substance | amyloid nucleation score |
| --- | --- |
| PCLSDMRLTSAEKGFV | 0.455 ± 0.69 |
| NPSFNPWNDHHYCTSGMCML | 0.562 ± 0.81 |
| GFLDVALTLSWANHRGDSSV | 3.04 ± 0.13 |
| TDPLSYTFVTSPVMVTRGSS | -0.942 ± 0.52 |
| YIVYFESRN | 0.438 ± 0.16 |
| VDSRSWTNLMWSRVAKWLMG | 0.155 ± 0.51 |
| VLKTWVIDNKSVGEMCNLNG | 0.556 ± 0.85 |
| LMDNCVRR | -1.06 ± 1.9 |
| CLVPAQGCYYGYLLTLMVER | -0.264 ± 0.52 |
| VVVFVSE | 0.997 ± 0.65 |
| LYRDSLKLF | -0.725 ± 0.49 |
| YTTHLCLGAVSLYYVSGYTR | 2.44 ± 0.13 |
| VIPKGPSKTLNNFWYYAYHS | -0.327 ± 0.79 |
| YFCPLKCVMPENDCPFPMVM | 0.416 ± 0.25 |
| NHCCRVFMCFRIRGMYNAET | 4.05 ± 0.085 |
| YHNGDYCCVQFTTGSWVVRW | 0.391 ± 0.28 |
| AGLWTLRQMWWFTWGSIDII | inactive |
| RRWGLFDIFKMPKELNMLHW | 0.915 ± 1.1 |
| FKGRNSFPLLDSWVIHRIGI | 0.422 ± 0.9 |
| GLTCMHPWWLSHAEKRLVEL | 1.05 ± 0.49 |
| IWRWPRMESKSGYHSDFNST | -1.32 ± 2.4 |
| IANGHKSSRCMQKDSSTS | 0.586 ± 0.35 |

| Substance | amyloid nucleation score |
| --- | --- |
| LFWWKE | -0.292 ± 0.44 |
| CYLLQWTSFCQQAFSNEMGW | 0.267 ± 0.67 |
| PVVPCYPRLKVCTGRRTAGA | 0.684 ± 0.55 |
| VMILNLIVDTRLRVSRHLHV | 2.88 ± 0.28 |
| SSRGRPLQPSIQIKYSFVMY | 4.13 ± 0.095 |
| FVPIDLGNGK | 0.564 ± 0.51 |
| CCLIHS | 1.38 ± 0.5 |
| SISWVWAAPIRAI | -1.59 ± 2.4 |
| LYAAYCRQGTTHAIR | -0.389 ± 0.54 |
| NKLTSCTVSHCL | -0.125 ± 0.44 |
| GRGWYGSRYARVVHFVWGYA | -0.487 ± 0.34 |
| DDMVDVPFTMVGMWPYDSY | -0.381 ± 0.3 |
| MVDMILLGRNFINKRMLCLG | 0.019 ± 0.64 |
| LAGQVVRRTKTLWHAPAHPY | 0.374 ± 0.36 |
| LSSDADFKNNSLFRESDKYV | -0.297 ± 0.22 |
| LCLGLHSNLSLSMLRLLVLE | -0.482 ± 1.4 |
| RKNFMGSEFVLDNILCLFLL | 7.583 ± 0.055 |
| MWWAHDGFRSCLRHISHADG | 0.349 ± 0.91 |
| KCIYTEKEMGLSAFTLRLYI | 6.286 ± 0.058 |
| GMHLVKQVQGYRVRAEYSLF | 0.98 ± 0.92 |
| KTPLYLPYLYFSIRLMCYWY | -0.47 ± 0.21 |
| GSTSCK | 0.79 ± 0.43 |

| Substance | amyloid nucleation score |
| --- | --- |
| LVRWSLLRFFL | 1.89 ± 0.59 |
| MYGNES | -0.02 ± 0.4 |
| FRRFIFFVGYGHFIFWASWL | -0.156 ± 0.68 |
| GAVPDPKVVGMGFQMGAVNS | 0.877 ± 0.7 |
| NELWCKADVMS | inactive |
| KNVMVFVQDWIVVSCMRVEK | 2.39 ± 0.14 |
| TWYLMMENVS | 4.69 ± 0.056 |
| FELTVGIWQHWRT | 0.45 ± 0.5 |
| LFSWFWNEI | 0.658 ± 0.72 |
| CKVDRFIRCGVGYLSG | 0.039 ± 0.28 |
| RSSKYVNHASQKNAHLRGCS | 0.641 ± 0.7 |
| QVRLKEFLYSLKCDVRYGST | inactive |
| SCHYDQPDQKLLASQSLL | -1.02 ± 0.68 |
| SLEDLWTRVERIRASEPVLG | -0.293 ± 0.92 |
| SNFSG | 0.446 ± 0.66 |
| ICIYNSGIGLTGVRVWVQGL | inactive |
| RFRSCSYLVNRSSMLAATDG | inactive |
| KYFSSNSKYIYDQLIVPSRT | -0.42 ± 1.7 |
| HFICKLND | 0.354 ± 0.34 |
| DGLRCIGCIGNTGDWNS | 6.86 ± 0.085 |
